# According to patent publication US5624904A, “Method for treating gram positive septicemia” (Massachusetts Institute of Technology, priority 1993, dated 1997):
# Assays:
# soluble MSRP = test: bead-binding competition assay: ligands interfering with binding of labeled soluble receptor to poly G beads, M-BSA beads or LTA; conditions: inhibitor at 400 μg/ml
# Method: The ability of the soluble MSRP to block scavenger receptor-mediated cellular metabolism of known MSRP ligands, such as radiolabeled endotoxin, whole Gram-positive bacteria, or LTA, is measured by competitive inhibition assays. […] This bead-binding assay can be used to measure the association of endotoxin, lipid IVA, LTA, and similar molecules, to soluble forms of the MSRP.
# Gram-positive bacteria = test: microbial binding assay (whole cell assay), all species and strains of Table I; conditions: for binding of [35S]s-bSR-I to Gram-positive bacteria: all species and strains tested (Table I)
# Method: (§1) Gram-positive bacteria were grown overnight either on LB agar plates (L. monocytogenes, B. subtilis) or on 5% sheep blood agar plates (all other organisms). Fresh colonies were inoculated into Todd Hewitt Broth (DIFCO) and were grown to stationary phase (16-18 hours; 1×10^9 CFU/1 ml) at 37° C. without shaking. Initial experiments indicated greater binding of MSRP to organisms grown to stationary phase compared to organisms used at log phase. Thus, stationary phase organisms were used in all experiments, although results were similar for log phase organisms.
# (§2) All bacterial strains were harvested by centrifugation at 3500×g for 10 minutes and washed twice in cold Buffer B (20 mM Tris base at pH 8.0/150 mM NaCl/0.05% NAN3) before resuspending to a final density of approximately 1×10^9 bacteria/ml (O.D.600 =2.0).
# [^35 S]methionine-labeled conditioned medium was prepared from transfected CHO[s-bSRI]-A2 cells and untransfected CHO cells. The media were designated [^35 S]s-bSR-I medium (containing s-bSR-I) and [^35 S]control medium (containing no s-bSR-I) respectively. As described by D. Resnick et al., 268 J. Biol. Chem. 3538-3545 (1993), CHO[s-bSR-1]-A2 and untransfected CHO cells were plated at a density of 9×10^5 cells/100 mm dish in medium B. Cells were grown to 80% confluence (approximately 48 hours), washed, and metabolically labeled by addition of 4.5 ml of medium A prepared with methionine- and cysteine-freeHam's F-12 and supplemented with 0.2 mM L-cysteine, and 80 μCi/mi [^35 S]methionine (Trans ^35 S-label with 70% methionine, purchased from ICN Biomedicals, Irvine, Calif.). After a 5 hour incubation at 37° C., supernatants were collected, and protease inhibitors and Buffer A+BSA (20 mM Tris base at pH 8.0/150 mM NaCl/1 mM CaCl2; containing 2 mg/ml bovine serum albumin and 0.05% NAN3) were added at final concentrations of 1 mM phenylmethylsulfonylfluoride (PMSF) (Sigma, St. Louis, Mo.), 1 μM leupeptin (Sigma), and 1 μM pepstatin (Sigma); 2:1 volume ratio of supernatant to buffer. […]
# Streptococcus pyogenes = test: microbial binding assay (whole cell assay) of [35S]s-bSR-I
# Method: as §1, §2
# (§3) [^35 S]methionine-labeled conditioned medium was prepared from transfected CHO[s-bSRI]-A2 cells and untransfected CHO cells. The media were designated [^35 S]s-bSR-I medium (containing s-bSR-I) and [^35 S]control medium (containing no s-bSR-I) respectively. As described by D. Resnick et al., 268 J. Biol. Chem. 3538-3545 (1993), CHO[s-bSR-1]-A2 and untransfected CHO cells were plated at a density of 9×10^5 cells/100 mm dish in medium B. Cells were grown to 80% confluence (approximately 48 hours), washed, and metabolically labeled by addition of 4.5 ml of medium A prepared with methionine- and cysteine-freeHam's F-12 and supplemented with 0.2 mM L-cysteine, and 80 μCi/mi [^35 S]methionine (Trans ^35 S-label with 70% methionine, purchased from ICN Biomedicals, Irvine, Calif.). After a 5 hour incubation at 37° C., supernatants were collected, and protease inhibitors and Buffer A+BSA (20 mM Tris base at pH 8.0/150 mM NaCl/1 mM CaCl2; containing 2 mg/ml bovine serum albumin and 0.05% NAN3) were added at final concentrations of 1 mM phenylmethylsulfonylfluoride (PMSF) (Sigma, St. Louis, Mo.), 1 μM leupeptin (Sigma), and 1 μM pepstatin (Sigma); 2:1 volume ratio of supernatant to buffer. The samples were then clarified by centrifugation (1000×g, 15 minutes, 4° C.) and stored in Falcon 2099 tubes that had been precoated with Buffer A+BSA.
# (§4) Thirty minutes prior to binding assays, unlabeled L-methionine ((Sigma, St. Louis, Mo.) at 10 mM final concentration was added to suspensions of microorganisms grown as described above to minimize incorporation of free [^35 S]methionine into microbial proteins during the assays. One ml assay mixtures containing 200 μl of bacterial suspension (approximately2×10^8 bacteria), 50 μl of Buffer A (20 mM Tris base at pH 8.0/150 mM NaCl/1 mM CaCl2), and 750 μl of either [^35 S]s-bSR-I or [^35 S]control medium were prepared in microcentrifuge tubes and incubated overnight on a rotator at 4° C. Maleylated bovine serum albumin (M-BSA) was coupled to CNBr-activated Sepharose™ (Pharmacia Fine Chemicals, Piscataway, N.J.) at approximately 3 mg M-BSA/mi hydrated resin. Suspensions of M-BSA-coupled Sepharose™ beads (M-BSA beads) (25 μl ) were used in place of microorganism suspensions as positive controls.
# (§5) After the overnight incubation, the bacteria or beads were pelleted by centrifugation in a microcentrifuge at 12,500×g for 5 minutes at 4° C. and washed twice with cold buffer A. In experiments examining the ability of LTA to inhibit the binding of the s-bSR-I to M-BSA beads, the beads were allowed to settle by gravity before each washing step, to prevent pelleting of LTA micelies. The washed pellets were then resuspended in SDS-PAGE sample buffer containing 2% β-mercaptoethanol, boiled for 5 minutes, and insoluble material was removed by centrifugation at 12,500×g for 2 minutes. The reduced samples were fractionated by electrophoresis through 10% polyacrylamide gels, as described by Resnick et al. (1993), and the labeled proteins were visualized by autoradiography with Kodak X-AR film. […]
# Streptococcus agalactiae = test: as above
# Method: as §1, §2, §3, §4, §5
# Enterococcus hirae = test: as above
# Method: as §1, §2, §3, §4, §5
# P388D1 cells = test: cell binding assay: FITC-labeled S. pyogenes T1/195/2 bound to macrophage-like cells expressing MSRP; assay type: cell-based, murine; conditions: 30 minutes 37° C., mean ± SD of three experiments, without poly G 72±8
# Method: The ability of poly G to inhibit S. pyogenes binding was used in experiments to examine the interaction of FITC-labeled pyogenes (strain T1/195/2) with a cultured murine macrophage-like cell line, P388D1, shown previously to express MSRP by J. Ashkenas et al., 34 J. Lipid Res. 983-1000 (1993).
# P388D1 cells were maintained in dishes in Ham's F-12 with 10% fetal calf serum, 100 units/ml penicillin, and 100 μg/ml streptomycin. For experiments, approximately 12,500 cells were plated on 1 cm glass cover slips, in media lacking antibiotics. Cells were allowed to adhere for at least 24-36 hours, then washed in Ham's F-12 containing 10% fetal calf serum. S. pyogenes, either unlabeled or FITC-labeled, was added (final dilution of 1:250 from a stock solution of O.D.600 =1.0) in the presence or absence of varying concentrations of poly G. Mixtures were incubated for 30 minutes at 37° C. in 5% CO2, then washed three times in PBS, and fixed with 100% cold methanol. Samples containing non-FITC labeled organisms were Gram-stained, then cover slips were mounted with Moviol and DAPCO. Slides were viewed in blinded fashion by two observers using fluorescence and phase contrast microscopy and a Nikon Microphot FXA epifluorescence microscope. The results (bacteria bound per 100 P388D1 cells) represent the means ± standard deviations determined from three experiments in which at least 100 P388D1 cells were counted for each condition.
# Streptococcus mutans = test: microbial binding assay (whole cell assay) of [35S]s-bSR-I
# Method: as §1, §2, §3, §4, §5
# Bacillus subtilis = test: as above
# Method: as §1, §2, §3, §4, §5
# Staphylococcus aureus = test: as above
# Method: as §1, §2, §3, §4, §5
# Listeria monocytogenes = test: as above
# Method: as §1, §2, §3, §4, §5
# S. pneumoniae = test: as above; design: species or system Streptococcus pneumoniae; conditions: two encapsulated and one rough strain
# Method: as §1, §2
# [^35 S]methionine-labeled conditioned medium was prepared from transfected CHO[s-bSRI]-A2 cells and untransfected CHO cells. The media were designated [^35 S]s-bSR-I medium (containing s-bSR-I) and [^35 S]control medium (containing no s-bSR-I) respectively. […]
molecule,measurement,setting,value
poly C,"competition with binding of labeled soluble receptor to poly G beads, M-BSA beads, or LTA",soluble MSRP,failed to compete
"polyGuanosine [poly G, reference compound]",competition of poly G with [35S]s-bSR-I binding to Gram-positive bacteria,Gram-positive bacteria; extent of competition varied slightly between organisms,competitive
same,competition with binding of S. pyogenes to s-bSR-I,Streptococcus pyogenes; poly G 400 μ/ml added to assay mixture,effective competitor
same,competition with binding of receptor to S. agalactiae,Streptococcus agalactiae; 400 μg/ml poly G,competed
same,competition with binding of receptor to Enterococcus hirae,Enterococcus hirae; 400 μg/ml poly G,competed
same,number of cell associated bacteria/100 P388D1 cells,P388D1 cells; poly G 2 μg/ml,43±4 bacteria/100 P388D1 cells
same,number of cell associated bacteria/100 P388D1 cells,P388D1 cells; poly G 20 μg/ml,28±9 bacteria/100 P388D1 cells
same,number of cell associated bacteria/100 P388D1 cells,P388D1 cells; poly G 200 μg/ml,22±5 bacteria/100 P388D1 cells
same,"competition with binding of labeled soluble receptor to poly G beads, M-BSA beads, or LTA",soluble MSRP,successful competitors
"maleylated BSA: maleylated bovine serum albumin, MSRP ligand","competition with binding of labeled soluble receptor to poly G beads, M-BSA beads, or LTA",soluble MSRP,successful competitors
"s-bSR-I: truncated, secreted trimeric form of the type I bovine macrophage scavenger receptor containing all four extracellular domains, expressed in CHO cells (protein, UniProt P21758 77-453, looked up, extracellular domain, truncated, secreted trimeric form of the type I bovine macrophage scavenger receptor containing all four extracellular domains, expressed in CHO cells) extracellular domain: KWETKNCTVGSVNADISPSPEGKGNGSEDEMRFREAVMERMSNMESRIQYLSDNEANLLDAKNFQNFSITTDQRFNDVLFQLNSLLSSIQEHENIIGDISKSLVGLNTTVLDLQFSIETLNGRVQENAFKQQEEMRKLEERIYNASAEIKSLDEKQVYLEQEIKGEMKLLNNITNDLRLKDWEHSQTLKNITLLQGPPGPPGEKGDRGPPGQNGIPGFPGLIGTPGLKGDRGISGLPGVRGFPGPMGKTGKPGLNGQKGQKGEKGSGSMQRQSNTVRLVGGSGPHEGRVEIFHEGQWGTVCDDRWELRGGLVVCRSLGYKGVQSVHKRAYFGKGTGPIWLNEVFCFGKESSIEECRIRQWGVRACSHDEDAGVTCTT",binding of [35S]s-bSR-I to Gram-positive bacteria,Gram-positive bacteria,bound
same,binding of [35S]s-bSR-I to Gram-positive bacteria,Gram-positive bacteria; listed as secreted Type I Bovine MSRP,Bound
same,binding of [35S]s-bSR-I to Streptococcus mutans,Streptococcus mutans,bound
same,binding of [35S]s-bSR-I to Bacillus subtilis,Bacillus subtilis,bound
same,binding of [35S]s-bSR-I to S. pyogenes,"Streptococcus pyogenes; eleven strains, seven different M protein types (Table I), overnight 4° C., SDS-PAGE/autoradiography",bound
same,dependence of [35S]s-bSR-I binding on bacterial protein synthesis or viability,"Streptococcus pyogenes; organisms preincubated with 50 μg/ml chloramphenicol or 0.05% NaN3, or killed at 60° C. for 10 minutes",neither decreased
same,specificity of [35S]s-bSR-I binding to S. pyogenes,Streptococcus pyogenes; strain T1/195/2,specific
same,"s-bSR-I binding, M protein-negative mutant versus parent",Streptococcus pyogenes; type 28 strain T28/150A/5 and spontaneous M protein-negative mutant T28/51/4-4,equivalently
same,"[35S]s-bSR-I binding, acapsular mutant versus wild type",Streptococcus pyogenes; wild type 87-282 and hyaluronic acid-negative transposon mutant TX4,equally well
same,"[35S]s-bSR-I binding, capsule-minus transposon mutants versus parent strains",Streptococcus agalactiae; S. agalactiae isogenic mutants,equivalently or better
same,binding of [35S]s-bSR-I to S. agalactiae,"Streptococcus agalactiae; overnight 4° C., autoradiography",bound
same,binding of [35S]s-bSR-I to Staphylococcus aureus,Staphylococcus aureus,bound
same,"[35S]s-bSR-I binding, capsule-minus transposon mutants versus parent strains",Staphylococcus aureus; S. aureus isogenic mutants,equivalently or better
same,binding of [35S]s-bSR-I to Enterococcus hirae,"Enterococcus hirae; strain 9790, overnight 4° C., autoradiography",bound
same,binding of [35S]s-bSR-I to Listeria monocytogenes,Listeria monocytogenes,bound
same,binding of [35S]s-bSR-I to S. pneumoniae,S. pneumoniae,minimal binding
